{"source": "paper PMC5056641", "molecular_target": "His-CLK1(ΔN) (mouse)", "assay": "kinetic competition", "data": [{"substance": "SRSF1 (His-tagged) (from UniProt Q07955 1-248) (natural protein)", "values": [{"measurement": "Ki", "result": 300, "unit": "nM"}]}]}
